Common to all, as to experiment: cell-based or functional assay
Assay [1] has as its target T1, type I interferon-α/β receptor (IFNAR), composed of the IFNAR1 and IFNAR2 subunits (human) (UniProt P17181).
T1 sequence (looked up) 1: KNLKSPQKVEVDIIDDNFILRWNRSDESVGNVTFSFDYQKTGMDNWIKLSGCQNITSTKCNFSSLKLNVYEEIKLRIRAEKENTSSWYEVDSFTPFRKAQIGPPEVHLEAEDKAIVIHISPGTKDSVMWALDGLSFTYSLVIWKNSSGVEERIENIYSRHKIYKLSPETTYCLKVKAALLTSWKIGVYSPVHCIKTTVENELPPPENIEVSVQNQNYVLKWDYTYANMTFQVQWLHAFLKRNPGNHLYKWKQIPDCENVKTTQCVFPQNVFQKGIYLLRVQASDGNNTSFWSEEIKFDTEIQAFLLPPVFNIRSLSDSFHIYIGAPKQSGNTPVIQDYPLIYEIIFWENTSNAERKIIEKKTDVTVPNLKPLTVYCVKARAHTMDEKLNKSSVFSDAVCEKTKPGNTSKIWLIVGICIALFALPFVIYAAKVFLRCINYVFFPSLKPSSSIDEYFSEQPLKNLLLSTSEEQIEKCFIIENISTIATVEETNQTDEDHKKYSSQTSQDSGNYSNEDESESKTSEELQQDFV
T1 sequence (looked up) 2: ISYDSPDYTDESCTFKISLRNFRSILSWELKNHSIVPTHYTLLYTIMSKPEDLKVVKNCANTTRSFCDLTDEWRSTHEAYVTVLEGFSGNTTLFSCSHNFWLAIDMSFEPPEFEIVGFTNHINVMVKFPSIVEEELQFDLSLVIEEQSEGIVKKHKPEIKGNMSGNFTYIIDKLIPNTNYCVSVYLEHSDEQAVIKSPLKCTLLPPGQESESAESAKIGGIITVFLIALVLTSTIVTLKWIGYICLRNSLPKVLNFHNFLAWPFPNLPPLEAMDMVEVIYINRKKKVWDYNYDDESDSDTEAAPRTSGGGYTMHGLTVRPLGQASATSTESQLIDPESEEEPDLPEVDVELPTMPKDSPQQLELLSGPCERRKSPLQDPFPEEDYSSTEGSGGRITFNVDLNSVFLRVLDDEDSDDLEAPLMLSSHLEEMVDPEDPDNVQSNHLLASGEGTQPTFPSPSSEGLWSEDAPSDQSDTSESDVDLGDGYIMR

For the next assay, the target named is T2, human CD20 (human) (UniProt P11836).
T2 sequence (looked up): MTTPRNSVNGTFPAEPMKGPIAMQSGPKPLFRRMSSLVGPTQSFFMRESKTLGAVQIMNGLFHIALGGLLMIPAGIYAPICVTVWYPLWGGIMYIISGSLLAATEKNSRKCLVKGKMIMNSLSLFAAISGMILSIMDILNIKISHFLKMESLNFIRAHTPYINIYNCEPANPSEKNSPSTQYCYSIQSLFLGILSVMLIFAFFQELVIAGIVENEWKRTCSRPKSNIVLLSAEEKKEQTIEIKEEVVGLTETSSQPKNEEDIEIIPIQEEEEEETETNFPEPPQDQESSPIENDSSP

The target in assay [2] is T1, type I interferon-α/β receptor (IFNAR), composed of the IFNAR1 and IFNAR2 subunits (human). This is another data set of the same source.

Read-outs that look alike come from different tables or passages of the source.

Take “wild type human IFN-β (from UniProt P01574 22-187) (ligand)”: in assay [1], the EC50 for pSTAT1 in CD19 negative cells of human PBMCs came to 0.592 ng/ml and the EC50 for pSTAT1 in CD19 positive cells of human PBMCs was found to be 0.422 ng/ml.

B1: huCD20 VHH-20*GGS-huIFNβ-6*His, wild type hIFNβ coupled to anti-huCD20 VHH (P-126) (protein)
chain: QVQLQESGGGLAQAGGSLRLSCAASGRTFSMGWFRQAPGKEREFVAAITYSGGSPYYASSVRGRFTISRDNAKNTVYLQMNSLKPEDTAVYYCAANPTYGSDWNAENWGQGTQVTVSSGGSGGSGGSGGSGGSGGSGGSGGSGGSGGSGGSGGSGGSGGSGGSGGSGGSGGSGGSGGSMSYNLLGFLQRSSNFQCQKLLWQLNGRLEYCLKDRMNFDIPEEIKQLQQFQKEDAALTIYEMLQNIFAIFRQDSSSTGWNETIVENLLANVYHQINHLKTVLEEKLEKEDFTRGKLMSSLHLKRYYGRILHYLKAKEYSHCAWTIVRVEILRNFYFINRLTGYLRNHHHHHH
Take B1: in the assay with human CD20 (human), the EC50 for pSTAT1 in CD19 positive (CD20 positive B) cells of human PBMCs is 97 ng/ml; the Targeting effect (EC50 on CD19 negative cells divided by that on CD19 positive cells) was 7.1 fold; the targeting effect, anti-proliferative activity on Daudi (CD20 positive) versus Wish (CD20 negative) cells was 24.3 fold. In assay [2], this molecule came in with an EC50 for pSTAT1 in CD19 negative cells of human PBMCs of 687 ng/ml.

(Values after patent US20190194284A1.)
